Laboratory results: US20120207760A1

B1: TCN-523 (5248_A17) (antibody, V domains shown)
VH: QVQLVQSGAEVKKPGSSVKVSCKASGGSFSNYAFSWVRQAPGQGLEWMGGTIPLLGTTNYAQKFQGRVTISADQFTSTAYMELGSLRSEDTAVYYCTRRKMTTAFDSWGQGTLVTVSS
VL: QPVLTQPPSASASLGASVTLTCTLSSAYSNYKVDWYQQRPGKGPRFVMRVGTGGIVGSKGDGIPDRFSVLGSGLNRYLTIKNIQEEDESDYHCGADHGSGSNFVSPYVFGGGTKLTVL
B2: TCN-504 (3251_K17) (antibody, V domains shown)
VH: QVQLQESGPGLVKPSETLSLTCAVSGVSISNIDFYWGWIRQPPGKGLEWIGNIYYTGITFYNPSLSSRVAISIDTSKNQFSLTLTSVTAADTAMYYCARHYGDSEAINDAFDIWGQGTMLTVSS
VL: EIVMTQSPATLSVSPGERATLSCRASQSVGNSLAWYQQRPGQAPRLLIYGASTRATGIPPRFSGSGSGTEFTLTISSLQTEDFAVYYCQQYINWRPLSFGGGTKVEIK

Tests used:
Settings in all cases: remark: other sources report otherwise
[1] = target: T1, recombinant homotrimeric HA, A/Hong Kong/1073/99 H9N2 (Influenza A virus A/Hong Kong/1073/99 (H9N2)); test: trimeric HA microarray, transfection set 1
[2] = target: T1, recombinant homotrimeric HA, A/Hong …; test: trimeric HA microarray, transfection set 2
[3] = target: recombinant homotrimeric HA, A/northern shoveler/California/HKWF115/07 (Influenza A virus A/northern shoveler/California/HKWF115/2007 (H6N1)); test: trimeric HA microarray, transfection set 2
[4] = target: recombinant soluble homotrimeric HA of A/Hong Kong/2108/03 - H9N2 (Influenza A virus A/HK/2108/2003 (H9N2)); test: micro-array; captured IgG, V5-tagged trimeric HA
[5] = target: T2, recombinant homotrimeric HA, A/Wisconsin/67/05 H3N2 (Influenza A virus A/Wisconsin/67/05 (H3N2)); test: trimeric HA microarray, transfection set 1
[6] = target: T3, recombinant homotrimeric HA, A/duck/Yangzhou/02/05 H8N4 (Influenza A virus A/duck/Yangzhou/02/2005 (H8N4)); test: trimeric HA microarray, transfection set 1
[7] = target: recombinant soluble homotrimeric HA of A/Hong Kong/2108/03 (H9N2) (Influenza A virus A/Hong Kong/2108/03 (H9N2)); test: microarray, control antibody, trimeric HA
[8] = target: T2, recombinant homotrimeric HA, …; test: trimeric HA microarray, transfection set 2
[9] = target: recombinant homotrimeric HA, A/Netherlands/219/03 H7N7 (Influenza A virus A/Netherlands/219/03 (H7N7)); test: trimeric HA microarray, transfection set 2
[10] = target: T3, recombinant homotrimeric HA, …; test: trimeric HA microarray, transfection set 2
[11] = target: recombinant homotrimeric HA, A/Anhui/1/05 H5N1 (Influenza A virus A/Anhui/1/05 (H5N1)); test: trimeric HA microarray, transfection set 2

| Binder | Trimeric HA Binding RLU [1] | Trimeric HA Binding RLU [2] | Trimeric HA Binding RLU [3] | Trimeric HA Binding: RLU [4] | Trimeric HA Binding RLU [5] | Trimeric HA Binding RLU [6] | Trimeric HA Binding: RLU [7] | Trimeric HA Binding RLU [8] | Trimeric HA Binding RLU [9] | Trimeric HA Binding RLU [10] | Trimeric HA Binding RLU [11] |
| --- | --- | --- | --- | --- | --- | --- | --- | --- | --- | --- | --- |
| B1 | 21700 RLU | 31300 RLU | 21200 RLU |  |  |  |  |  |  |  |  |
| B2 |  |  |  | 7 RLU | 14300 RLU | 28900 RLU | 454 RLU | 21600 RLU | 19300 RLU | 17800 RLU | 31000 RLU |
